Reference: publication PMC10130768

Columns and labels:
[1] = molecular target: SNF2H (UniProt O60264); assay: HA immunoprecipitation and mass spectrometry; details: PC3 cells; average of three independent experiments; parent: est. 35; read off a plot
[2] = molecular target: DHX9 (UniProt Q08211); assay: HA immunoprecipitation and mass spectrometry; details: PC3 cells; average of three independent experiments; parent: est. 32; read off a plot
Chain of UniProt Q08211 (Q08211 whole entry): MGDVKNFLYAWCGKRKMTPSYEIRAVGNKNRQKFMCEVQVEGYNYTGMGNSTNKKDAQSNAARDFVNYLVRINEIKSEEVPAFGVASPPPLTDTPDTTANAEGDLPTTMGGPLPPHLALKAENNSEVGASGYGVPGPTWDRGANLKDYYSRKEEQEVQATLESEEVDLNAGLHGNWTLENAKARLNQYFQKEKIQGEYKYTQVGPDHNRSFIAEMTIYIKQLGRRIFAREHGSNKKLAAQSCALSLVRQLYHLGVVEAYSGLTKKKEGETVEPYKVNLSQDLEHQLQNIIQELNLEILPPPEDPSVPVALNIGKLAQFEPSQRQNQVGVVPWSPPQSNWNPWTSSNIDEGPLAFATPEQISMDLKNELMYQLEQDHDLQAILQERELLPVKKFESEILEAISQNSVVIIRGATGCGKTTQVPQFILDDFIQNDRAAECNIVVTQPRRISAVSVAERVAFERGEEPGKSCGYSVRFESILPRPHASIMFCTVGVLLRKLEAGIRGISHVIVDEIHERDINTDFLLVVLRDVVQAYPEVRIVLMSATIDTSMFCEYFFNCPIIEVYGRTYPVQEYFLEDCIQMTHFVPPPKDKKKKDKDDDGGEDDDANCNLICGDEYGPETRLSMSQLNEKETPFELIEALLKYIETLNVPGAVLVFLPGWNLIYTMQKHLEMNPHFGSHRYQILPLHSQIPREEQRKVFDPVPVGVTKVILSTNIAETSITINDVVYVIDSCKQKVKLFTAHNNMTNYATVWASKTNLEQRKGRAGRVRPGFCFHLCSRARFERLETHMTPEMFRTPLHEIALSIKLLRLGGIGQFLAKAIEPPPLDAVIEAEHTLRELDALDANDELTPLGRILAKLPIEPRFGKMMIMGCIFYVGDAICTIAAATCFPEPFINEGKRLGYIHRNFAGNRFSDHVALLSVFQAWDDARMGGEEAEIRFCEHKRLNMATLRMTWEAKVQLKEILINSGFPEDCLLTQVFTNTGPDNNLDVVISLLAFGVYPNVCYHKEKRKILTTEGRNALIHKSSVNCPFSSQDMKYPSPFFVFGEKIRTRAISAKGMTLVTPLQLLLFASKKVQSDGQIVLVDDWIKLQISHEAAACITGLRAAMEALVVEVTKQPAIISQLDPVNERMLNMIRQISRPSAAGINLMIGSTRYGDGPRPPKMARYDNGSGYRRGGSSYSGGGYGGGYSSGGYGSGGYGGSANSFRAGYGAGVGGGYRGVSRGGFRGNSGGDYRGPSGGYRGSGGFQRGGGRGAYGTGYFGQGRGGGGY

Chain of UniProt O60264 (O60264 whole entry): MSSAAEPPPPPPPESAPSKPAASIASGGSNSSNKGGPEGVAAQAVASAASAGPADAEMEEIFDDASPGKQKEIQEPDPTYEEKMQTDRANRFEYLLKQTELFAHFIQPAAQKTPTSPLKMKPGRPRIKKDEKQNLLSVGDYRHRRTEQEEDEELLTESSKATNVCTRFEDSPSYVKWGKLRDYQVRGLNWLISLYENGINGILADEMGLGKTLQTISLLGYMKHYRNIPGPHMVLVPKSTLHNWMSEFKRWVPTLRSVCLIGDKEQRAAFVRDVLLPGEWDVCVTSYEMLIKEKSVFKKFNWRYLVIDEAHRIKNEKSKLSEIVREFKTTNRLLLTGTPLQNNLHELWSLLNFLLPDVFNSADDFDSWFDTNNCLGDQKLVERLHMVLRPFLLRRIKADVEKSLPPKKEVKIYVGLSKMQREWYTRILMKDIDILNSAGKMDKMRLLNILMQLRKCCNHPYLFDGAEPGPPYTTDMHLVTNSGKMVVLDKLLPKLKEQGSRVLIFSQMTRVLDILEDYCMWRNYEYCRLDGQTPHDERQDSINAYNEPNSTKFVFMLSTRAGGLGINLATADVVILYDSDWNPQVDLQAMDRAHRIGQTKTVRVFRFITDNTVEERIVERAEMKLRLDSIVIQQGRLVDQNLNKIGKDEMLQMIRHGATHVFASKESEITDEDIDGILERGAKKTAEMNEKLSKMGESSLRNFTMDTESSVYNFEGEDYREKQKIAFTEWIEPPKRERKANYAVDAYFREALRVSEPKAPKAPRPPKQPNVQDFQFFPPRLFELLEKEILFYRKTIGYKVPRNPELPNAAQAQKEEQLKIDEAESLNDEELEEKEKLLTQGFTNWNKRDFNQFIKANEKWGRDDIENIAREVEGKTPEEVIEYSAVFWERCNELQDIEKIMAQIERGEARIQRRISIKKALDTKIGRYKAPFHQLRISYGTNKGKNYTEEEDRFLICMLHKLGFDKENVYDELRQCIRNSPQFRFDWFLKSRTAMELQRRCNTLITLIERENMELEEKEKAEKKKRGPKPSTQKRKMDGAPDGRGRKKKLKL

response (peptides number) [1]: 32
response (peptides number) [2]: 36
Substance: HA-FLAG-tagged mouse WT BAZ2A (from UniProt Q91YE5) W531G; Y532A
